Measurements from doi:10.1101/2020.01.02.892901.
Where “and” joins values, the source holds several entries; their conditions need not be identical. Identical values can stand only once.

Molecular target: MET pY1313 phosphopeptide (human)
Assay: fluorescence polarisation

Kd: 3 µM and 12 µM
Substance: FGR SH2 domain (from UniProt P09769 144-241) (domain or fragment)
